Experimental data reported in PMC5264506, “An antibody that prevents serpin polymerisation acts by inducing a novel allosteric behaviour” (Biochemical Journal, 2016).
Blank lines part the entries; values can stand above or below the binder they belong to.

Key:
[1] = target: T1, α1-antitrypsin, plasma-derived wild-type (M) (UniProt P01009 25-418); assay: progress curves of intrinsic protein fluorescence (peptide incorporation) + native gel or EMSA; as a5, in the presence of mAb4B12; conditions: both partners purified
T1 construct: alpha1-antitrypsin, wild-type 'M' allele, plasma-derived; also called α1-AT; α1-ATWT; source: plasma-derived

[2] = target: α1-antitrypsin, plasma-derived wild-type (M) (UniProt P01009); assay: as above
[3] = target: the molecule itself; assay: native gel or EMSA; endpoint polymerisation: 0.1 mg/ml heated for 4 h (55°C, or 45-63°C) without antibody during heating; bis-Tris non-denaturing PAGE, Coomassie; polymerisation read as loss of the monomer band

fold increase in the rate of peptide incorporation with mAb4B12 against the non-antibody-bound control [1]: 2.5 fold
B1: 11-mer RCL peptide Ac-SEAAASTAVVI-NH2 (peptide)
peptide: Ac-SEAAASTAVVI-NH2
notes: model peptide corresponding with the reactive centre loop (RCL) of anti-thrombin; source: synthetic peptide

fold increase in the rate of peptide incorporation with mAb4B12 against the non-antibody-bound control [2]: 1.8 fold
Binder: Ac-FLAA-NH2 [4-mer peptide Ac-FLAA-NH2]

B2: α1-AT_(79-306), disulphide variant Gly79Cys/Leu306Cys (natural protein, UniProt P01009 25-418, looked up)
chain: EDPQGDAAQKTDTSHHDQDHPTFNKITPNLAEFAFSLYRQLAHQSNSTNIFFSPVSIATAFAMLSLGTKADTHDEILECLNFNLTEIPEAQIHEGFQELLRTLNQPDSQLQLTTGNGLFLSEGLKLVDKFLEDVKKLYHSEAFTVNFGDTEEAKKQINDYVEKGTQGKIVDLVKELDRDTVFALVNYIFFKGKWERPFEVKDTEEEDFHVDQVTTVKVPMMKRLGMFNIQHSKKLSSWVLLMKYLGNATAIFFLPDEGKLQHLENELTHDIITKFLENEDRRSASLHLPKLSITGTYDLKSVLGQCGITKVFSNGADLSGVTEEAPLKLSKAVHKAVLTIDEKGTEAAGAMFLEAIPMSIPPEVKFNKPFVFLMIEQNTKSPLFMGKVVNPTQK
modifications: disulphide 79-306 present in ~90% of molecules
notes: alpha1-antitrypsin, 'M' allele, engineered disulphide between helix C and the C-terminus of helix I, on the Cys232Ser background; also called 79-306 double mutant; source: E. coli XL-1 blue, pQE-30-based plasmid, purified
binding result [3]: binds
